This note sets out measurements from patent US11298402B2, “Lysosomal degradation of lipids and proteins and method of use thereof” (University of Ottawa, priority 2015, dated 2022).

Series [1] relates to McA-RH7777 cells stably expressing human apoB-100 and human apoC-III (A18-C3). In kind it is cell-based. The settings on record: for effect on EPA-induced lipid degradation (CLD turnover): cells silenced, transfected or pre-treated, then EPA 0.4 mM, 6 h. Here is the method:
(§1) In certain non-limiting examples described herein, McA-RH7777 cells stably expressing human apoB-100 and human apoC-III (designated A18-C3) were used for the studies. […] In addition, these studies, particularly those concerning EPA- or DHA-triggered lysosomal motility and CLD degradation, were also performed using primary rat hepatocytes. Transfection of plasmids encoding proteins of interest, or transfection of siRNA specific for silencing target gene expression, was achieved using the FuGENE HP Extreme reagent (Roche). Representative gene silencing siRNA sequences, which are not meant to be limiting, are described in Table 1, and plasmids encoding proteins of interest are described in Table 2. The effectiveness of siRNA silencing was verified by Western-blotting of cellular content of the target proteins, and by intracellular localization assay using siRNA-Tracker (Mirus Bioscience). Twenty-four h after plasmid transfection, or 48 h after siRNA transfection, the cells were cultured in lipid-rich media containing fetal bovine serum (20%) and OA (0.4 mM). The lipid-laden cells were switched to fresh media supplemented with OA or EPA (0.4 mM). In live imaging experiments, LipidTOX Red (Life Technologies) and LysoTracker (Life Technologies) were added to media prior to EPA treatment, to visualize lipid droplets and lysosomes, respectively. For visualizing peroxisomes, Peroxisome-GFP (Invitrogen) was introduced to the cells 24 h prior to experiments. Quantification of cell lipid contents was achieved either by direct mass measurement (HPTLC) and counting the number of lipid droplets using Image J Lipid Droplet Counter Plug-In, or indirectly by Western blot analysis of cellular content of ADRP. Secretion of apoB and TG-rich lipoprotein was determined by Western blot analysis and metabolic labeling. Mitochondrial β-oxidation was measured using MitoSOX Red (Life Technologies) in situ. Autophagic flux was determined by using Cyto-ID assay (Enzo Life Science) and by monitoring GFP-LC3 clustering in situ. Interaction of Arl8b and subunits of the HOPS complex was determined in situ by the proximity ligation assay (Olink Biosience). Cytoplasmic pH was measured using the cytosolic pHrodo indicator reagent (Invitrogen). Live imaging of fluorescent-tagged proteins was performed 1 h post-EPA treatment. Cells were also collected at the time of EPA treatment for transmission EM and tomography, as well as immuno-EM. For movies, cells were imaged at 60 sec intervals every 5 min, for a total of 30 min.
The A18-C3 cells were cultured in DMEM (Invitrogen) supplemented with fetal bovine serum (20%), penicillin (50 U/mL), streptomycin (50 μg/mL, Invitrogen) and Geneticin/G418 (500 μg/mL, Gibco) at 37° C. in 5% CO2. Transfection was conducted when cells were 60-70% confluence. Appropriate plasmids were mixed with FuGENE HP extreme reagent (Roche Diagnostic), according to manufacturer's protocol, and incubated for 30 min. Twenty-four h after transfection, cells were switched to lipid-rich media containing OA (0.4 mM) for additional 16 h prior to imaging and biochemical analysis. In silencing experiments, appropriate siRNAs were transfected into cells using the X-treme GENE siRNA regent (Roche Diagnostic). Localization of siRNA in transfected cells in situ was carried out using the Cy5 Label IT-siRNA Tracker (Minis Bioscience #7213) according to manufacturer's protocol. Forty-eight h after transfection, cells were switched to lipid-rich media containing OA (0.4 mM) for additional 16 h prior to imaging and biochemical analysis.
Quantification of lipid droplets was carried out using confocal and differential interface contrast (DIC) microscopy. Lipid droplets were stained with LipidTOX Red (Invitrogen) before adding OA or EPA. All images were visualized using a 63× oil immersion objective lens. Z-series stacks were acquired with 0.2 μm steps. […]

In series [2] the test system is McA-RH7777 cells (A18-C3). Put plainly: Live imaging of lysosomal motility and lysosome-CLD interaction (kiss-and-run). In kind it is cell-based, rat. The settings on record: cells silenced, transfected or pre-treated (15 min) before EPA. On the procedure: as §1
Cells were grown on 35-mm glass bottom dishes (Ibidi GmbH München, Germany) for 16 h in DMEM supplemented with FBS (20%) and OA (0.4 mM). Cells were imaged using a Zeiss 510 META laser scanning confocal microscope with a heated CO2-controlled stage (5% CO2 at 37° C.). Images were captured at a frame-rate of 30 frame/sec using a 63×. N.A.1.4 objective. Recommended laser lines and filter combinations were used for each dye. For visualization of lipid droplets, lysosomes, mitochondria, and mitochondrial β-oxidation, the respective reagents LipidTOX Red (Invitrogen), LysoTracker (Life Technology), MitoTracker (Life Technology), MitoSox Red (Invitrogen), and Peroxisome-GFP BacMam2.0 (Invitrogen) were introduced into the cells, according to manufacturers' recommendations, prior to EPA treatment.
Cells were cultured with lipid-rich media containing OA (0.4 mM) for 16 h. The lipid-laden cells were switched to fresh media containing EPA (0.4 mM) for 1 h, and the lysosomal movement towards lipid droplets was recorded by time-lapse microscopy. Fluorescent intensity of lysosomal signals at the periphery of selected individual lipid droplet was measured using Image J Live Intensity Profiler Plug-in^31-33 over a period of 40 sec. Quantification for each condition was carried out for 60 individual lipid droplets from three independent experiments. Constant threshold was applied to all of the images in each experiment.

For `Cl.N` [NH4Cl, reference compound], in series [1], the “effect on EPA-induced lipid degradation (CLD turnover)” value (“effect … (CLD turnover)” for short) is given as “inhibited”.
With `CCC/C=C/C/C=C/C=C/C=N/NN=O` [Triacsin C, reference compound], in series [2], the “effect on EPA-triggered lysosomal motility / lysosomal interaction with CLD” value is reported as “blocked”. In addition, the “effect … (CLD turnover)” value in series [1] is “inhibited EPA-induced lipid degradation”.
The matching figures for `COC(=O)Nc1nc2ccc(C(=O)c3cccs3)cc2[nH]1` [nocodazole, reference compound]: “blocks EPA-induced lysosomal movement” and “blocked EPA-induced lipid degradation”.

B1: RILP: Rab7 effector, retrograde motor adaptor, overexpressed GFP-tagged from plasmid (protein, UniProt Q96NA2 1-401, looked up)
Rab-interacting lysosomal …: MEPRRAAPGVPGWGSREAAGSASAAELVYHLAGALGTELQDLARRFGPEAAAGLVPLVVRALELLEQAAVGPAPDSLQVSAQPAEQELRRLREENERLRRELRAGPQEERALLRQLKEVTDRQRDELRAHNRDLRQRGQETEALQEQLQRLLLVNAELRHKLAAMQTQLRAAQDRERERQQPGEAATPQAKERARGQAGRPGHQHGQEPEWATAGAGAPGNPEDPAEAAQQLGRPSEAGQCRFSREEFEQILQERNELKAKVFLLKEELAYFQRELLTDHRVPGLLLEAMKVAVRKQRKKIKAKMLGTPEEAESSEDEAGPWILLSDDKGDHPPPPESKIQSFFGLWYRGKAESSEDETSSPAPSKLGGEEEAQPQSPAPDPPCSALHEHLCLGASAAPEA
modifications: GFP tag
On to B1, for which the “effect on EPA-triggered lysosomal motility / lysosomal interaction with CLD” value in series [2] was “blocks EPA-triggered lysosomal interaction with LDs”. The “effect … (CLD turnover)” value in series [1] is reported as “adversely blocked EPA-induced lipid degradation”.

B2: FYCO1: Rab7 effector, anterograde motor adaptor, overexpressed GFP-tagged from plasmid (protein, UniProt Q9BQS8 2-1478, looked up)
FYVE and coiled-coil …: ASTNAESQLQRIIRDLQDAVTELSKEFQEAGEPITDDSTSLHKFSYKLEYLLQFDQKEKATLLGNKKDYWDYFCACLAKVKGANDGIRFVKSISELRTSLGKGRAFIRYSLVHQRLADTLQQCFMNTKVTSDWYYARSPFLQPKLSSDIVGQLYELTEVQFDLASRGFDLDAAWPTFARRTLTTGSSAYLWKPPSRSSSMSSLVSSYLQTQEMVSNFDLNSPLNNEALEGFDEMRLELDQLEVREKQLRERMQQLDRENQELRAAVSQQGEQLQTERERGRTAAEDNVRLTCLVAELQKQWEVTQATQNTVKELQTCLQGLELGAAEKEEDYHTALRRLESMLQPLAQELEATRDSLDKKNQHLASFPGWLAMAQQKADTASDTKGRQEPIPSDAAQEMQELGEKLQALERERTKVEEVNRQQSAQLEQLVKELQLKEDARASLERLVKEMAPLQEELSGKGQEADQLWRRLQELLAHTSSWEEELAELRREKKQQQEEKELLEQEVRSLTRQLQFLETQLAQVSQHVSDLEEQKKQLIQDKDHLSQQVGMLERLAGPPGPELPVAGEKNEALVPVNSSLQEAWGKPEEEQRGLQEAQLDDTKVQEGSQEEELRQANRELEKELQNVVGRNQLLEGKLQALQADYQALQQRESAIQGSLASLEAEQASIRHLGDQMEASLLAVRKAKEAMKAQMAEKEAILQSKEGECQQLREEVEQCQQLAEARHRELRALESQCQQQTQLIEVLTAEKGQQGVGPPTDNEARELAAQLALSQAQLEVHQGEVQRLQAQVVDLQAKMRAALDDQDKVQSQLSMAEAVLREHKTLVQQLKEQNEALNRAHVQELLQCSEREGALQEERADEAQQREEELRALQEELSQAKCSSEEAQLEHAELQEQLHRANTDTAELGIQVCALTVEKERVEEALACAVQELQDAKEAASREREGLERQVAGLQQEKESLQEKLKAAKAAAGSLPGLQAQLAQAEQRAQSLQEAAHQELNTLKFQLSAEIMDYQSRLKNAGEECKSLRGQLEEQGRQLQAAEEAVEKLKATQADMGEKLSCTSNHLAECQAAMLRKDKEGAALREDLERTQKELEKATTKIQEYYNKLCQEVTNRERNDQKMLADLDDLNRTKKYLEERLIELLRDKDALWQKSDALEFQQKLSAEERWLGDTEANHCLDCKREFSWMVRRHHCRICGRIFCYYCCNNYVLSKHGGKKERCCRACFQKLSEGPGSPDSSGSGTSQGEPSPALSPASPGPQATGGQGANTDYRPPDDAVFDIITDEELCQIQESGSSLPETPTETDSLDPNAAEQDTTSTSLTPEDTEDMPVGQDSEICLLKSGELMIKVPLTVDEIASFGEGSRELFVRSSTYSLIPITVAEAGLTISWVFSSDPKSISFSVVFQEAEDTPLDQCKVLIPTTRCNSHKENIQGQLKVRTPGIYMLIFDNTFSRFVSKKVFYHLTVDRPVIYDGSDFL
modifications: GFP tag
In the case of B2, the “effect on EPA-triggered lysosomal motility / lysosomal interaction with CLD” value in series [2] is listed as “blocks EPA-triggered lysosomal interaction with LDs”. In addition, the “effect … (CLD turnover)” value in series [1] is listed as “adversely blocked EPA-induced lipid degradation”.

B3: Vps41: HOPS subunit overexpressed from plasmid (GFP-tagged) (protein)
chain: MAEAEEQETESLEESTDESEEESEEEPKLKYERLSNGVTEILQKDAASCMTVHDKFLALGTHYGKVYLLDVQGNITQKFDVSPVKINQISLDESGEHMGVCSEDGKLQVFGLYSGEEFHETFDCPIKIVAVHPQFVRSSCKQFVTGGKKLLLFERTWMNRWKSSVLHEGEGNIRSVKWRGHLIAWANNMGVKIFDITSKQRITNVPRDDISLRPDMYPCSLCWKDAVTLIIGWGTSIKICSVKERHASEMRDLPSRYVEIVSQFETEFYISGLAPLCDQLVVLSYVKEVSEKTEREYCARPRLDIIQPLPETCEEISSDALTVRGFQENECRDYHLEYSEGESLFYVVSPRDVVVAKERDQDDHIDWLLEKKKYEEALMAAEISHRNIKRHKILEIGLAYVNHLVERGEYDMAARKCQKILGKNASLWEYEVYKFKEIGQLKAISPYLPRGDPVLKPLIYEMILHEFLESDYEGFATLIREWPGDLYNNSVIVQAVRDHLKKDSQNKTLLKTLAELYTYDKNYGNALEIYLTLRHKDVFQLIHKHNLFSSIKDKIVLLMDFDSEKAVDMLLDNEDKISIKKVVEELEDRPELQHVYLHKLFKRDHHKGQRYHEKQISLYAEYDRPNLLPFLRDSTHCPLEKALEICQQRNFVEETVYLLSRMGNSRSALKMIMEELHDVDKAIEFAKEQDDGELWEDLILYSIDKPPFITGLLNNIGTHVDPILLIHRIKEGMEIPNLRDSLVKILQDYNLQILLREGCKKILVADSLSLLKKMHRTQMKGVLVDEENICESCLSPILPTDAAKPFSVVVFHCRHMFHKECLPMPSLNAPAQYCNICSAKNRGPGSAILEMKK
Consider B3, for which the “effect on EPA-triggered lysosomal motility / lysosomal interaction with CLD” value in series [2] was “enhanced lysosomal-CLD interaction”. Besides, in series [1], the “effect … (CLD turnover)” value is on record as “block lipid degradation”. In series [1] (co-transfected cells, 6 h post-OA or -EPA), the “effect on lipid degradation when co-expressed with Arl8b^WT, Arl8b^Q75L or Arl8b^T34N” value was “invariably blocks lipid degradation”.
